Results reported in patent publication US20200247886A1 (ZLIP, published 2020).

What was measured:
[1] = molecular target: T1, His-tagged CD47 (Homo sapiens (Human), UniProt Q08722 19-139, limits assumed); assay: IC50 (nM) MFI as grade, blocking His-tagged CD47 binding to SIRPα-CHO cells; legend +++: <2 nM
T1 construct: not shown: His tag

[2] = molecular target: T2, human CD47 expressed on cells (CD47 expressing CHO cells, Jurkat, HL60, DLD1, Raji) (human, UniProt Q08722 19-292); assay: EC50 (nM) as grade, flow cytometry, Fab on HL60 cells; legend ++: >1 nM and <7 nM
T2 construct: also called CHO-CD47; IAP

[3] = molecular target: T1, His-tagged CD47; assay: flow cytometry blocking assay: His-tagged CD47 with Fab on SIRPα-expressing CHO cells (SIRPα is the blocked ligand), anti-His-APC, MFI
[4] = molecular target: T2, human CD47 expressed on cells (CD47 …); assay: flow cytometry on DLD1 cells, Fab, frequency
[5] = molecular target: T2, human CD47 expressed on cells (CD47 …); assay: EC50 (nM) as grade, flow cytometry, Fab on DLD1 cells; legend +++: <5 nM
[6] = molecular target: T2, human CD47 expressed on cells (CD47 …); assay: flow cytometry on HL60 cells, Fab, frequency
[7] = molecular target: T1, His-tagged CD47; assay: IC50 (nM) Frequency as grade, blocking His-tagged CD47 binding to SIRPα-CHO cells; legend ++: >2 nM and <2.7 nM
[8] = molecular target: T1, His-tagged CD47; assay: flow cytometry blocking assay: His-tagged CD47 with Fab on SIRPα-expressing CHO cells (SIRPα is the blocked ligand), anti-His-APC, frequency
[9] = molecular target: T3, biotin labelled polyhistidine tagged CD47 protein (Novoprotein, Cat#321) (human, UniProt Q08722 19-139, biotin labelled (site not stated)); assay: flow cytometry blocking assay: biotinylated CD47 with Fab on SIRPα-expressing CHO cells (SIRPα is the blocked ligand), frequency
T3 construct: Bought protein; also called biotinylated CD47; biotinylated human CD47 protein; not shown: polyhistidine tag

[10] = molecular target: T3, biotin labelled polyhistidine tagged …; assay: IC50 (nM) as grade, Fab blocking biotinylated CD47 binding to SIRPα-CHO cells; legend +++: <10 nM
[11] = molecular target: T2, human CD47 expressed on cells (CD47 …); assay: EC50 (nM) as grade, flow cytometry, Fab on HL60 cells; legend +: >7 nM
[12] = molecular target: T3, biotin labelled polyhistidine tagged …; assay: IC50 (nM) as grade, Fab blocking biotinylated CD47 binding to SIRPα-CHO cells; legend ++: >10 nM and <65 nM
[13] = molecular target: T2, human CD47 expressed on cells (CD47 …); assay: flow cytometry on CD47 expressing CHO cells, MFI (FL-4)
[14] = molecular target: T2, human CD47 expressed on cells (CD47 …); assay: flow cytometry blocking assay on Raji cells, SIRPα is the blocked ligand, MFI
[15] = molecular target: T2, human CD47 expressed on cells (CD47 …); assay: IC50 (nM) MFI as grade, blocking biotinylated SIRPa-Fc binding to DLD1 cells; legend +++: <1 nM
[16] = molecular target: T2, human CD47 expressed on cells (CD47 …); assay: IC50 as grade, SIRPα blocking on Raji cells (second part of the table); legend +++: <1 nM
[17] = molecular target: T2, human CD47 expressed on cells (CD47 …); assay: flow cytometry blocking assay: 100 nM biotinylated SIRPa-Fc (blocked ligand) on DLD1 cells expressing CD47, MFI
[18] = molecular target: T2, human CD47 expressed on cells (CD47 …); assay: flow cytometry blocking assay: 100 nM biotinylated SIRPa-Fc (blocked ligand) on DLD1 cells expressing CD47, frequency
[19] = molecular target: T2, human CD47 expressed on cells (CD47 …); assay: flow cytometry on DLD1 cells, IgG, MFI
[20] = molecular target: T2, human CD47 expressed on cells (CD47 …); assay: IC50 (nM) Frequency as grade, blocking biotinylated SIRPa-Fc binding to DLD1 cells; legend ++: >1 nM and <20 nM
[21] = molecular target: T2, human CD47 expressed on cells (CD47 …); assay: flow cytometry on human platelets, donor 2, MFI
[22] = molecular target: T2, human CD47 expressed on cells (CD47 …); assay: flow cytometry on DLD1 cells, IgG, frequency
[23] = molecular target: T2, human CD47 expressed on cells (CD47 …); assay: flow cytometry on human red blood cells, donor 2, MFI
[24] = molecular target: T2, human CD47 expressed on cells (CD47 …); assay: flow cytometry blocking assay on Raji cells, SIRPα is the blocked ligand, MFI; remark: listed apart in the source
[25] = molecular target: T1, His-tagged CD47; assay: IC50 (nM) MFI as grade, blocking His-tagged CD47 binding to SIRPα-CHO cells; legend +: >2.7 nM
[26] = molecular target: T1, His-tagged CD47; assay: IC50 (nM) Frequency as grade, blocking His-tagged CD47 binding to SIRPα-CHO cells; legend +: >2.7 nM
[27] = molecular target: T2, human CD47 expressed on cells (CD47 …); assay: IC50 as grade, SIRPα blocking on Raji cells; legend +++: <1 nM
[28] = molecular target: T2, human CD47 expressed on cells (CD47 …); assay: flow cytometry on human red blood cells, donor 1, MFI
[29] = molecular target: T2, human CD47 expressed on cells (CD47 …); assay: flow cytometry SIRP-alpha blocking assay on Raji cells, MFI
[30] = molecular target: T3, biotin labelled polyhistidine tagged …; assay: flow cytometry blocking assay: antibody mixed with biotinylated human CD47 protein; blocked ligand SIRPα on cells; binding percentage

B1: ABU9 (Fab) (Fab, V domains shown)
VH: EVQLQQSGPELVKPGASVKLSCKASGFTFTNYYIHWVKQRPGQGPEWIGWIYLGSGNTKYNEKFKGKATLTADTSSSTAYLQLSTLISEDSAVYYCARYDYDLYLDSWGQGTTVTVSS
VL: DIKMNQSPSSLSASLGDTITITCHASQNINVWLSWYQQKPGNIPKLLIYKASNLHTGVPSRFSGSGSGTGFTLTISSLQPEDIATYYCQQGQSYPLTFGAGTKLELK
notes: Phage-derived Fab: murine VL and VH fused to human CL and CH1
B1 was tested, and the IC50 [1] was under 2 nM, the EC50 [2] was 1 to 7 nM and the “IC50 (read off the curve)” value [3] was about 2 nM. The “EC50 (read off the curve)” value [4] was about 2 nM, the EC50 [5] was under 5 nM and the “EC50 (read off the curve)” value [6] was about 6 nM. The IC50 [7] was 2 to 2.7 nM, the “IC50 (read off the curve)” value [8] was about 3 nM and the “IC50 (read off the curve)” value [9] was about 9 nM. For the same binder, the IC50 [10] was under 10 nM.

B2: ABU14 (Fab) (Fab, V domains shown)
VH: EVQLQQSGPELVKPGASVKISCKASGYSFTNYHIHWVKQRPGQGLEWIGWIYPGSGNTKYNEKFKGMAILTADTSSSTAYMQLSSLTSEDSAVYYCARYDYDLYLHSWGQGTTVTVSS
VL: DIQINQSPSSLSASLGDTITITCHASQNINVWLSWYQQKPGNIPKLLIYKASNLHTGVPSRFSGSGSGTGFTLTISSLQPEDIATYYCQQGQSYPLTFGAGTKLEIK
notes: as for B1
In the case of B2, the IC50 [1] is reported as under 2 nM, the EC50 [11] is reported as over 7 nM and the “IC50 (read off the curve)” value [3] is reported as about 2 nM. The IC50 [12] was 10 to 65 nM, the “EC50 (read off the curve)” value [4] was about 4 nM and the EC50 [5] was under 5 nM. The “EC50 (read off the curve)” value [6] was about 10 nM, the IC50 [7] was 2 to 2.7 nM and the “IC50 (read off the curve)” value [8] was about 3 nM. The “IC50 (read off the curve)” value [9] was about 20 nM.

B3: Positive 3 (analogue antibody) (antibody, V domains shown)
VH: QMQLVQSGAEVKKTGSSVKVSCKASGFNIKDYYLHWVRQAPGQALEWMGWIDPDQGDTEYAQKFQDRVTITRDRSMSTAYMELSSLRSEDTAMYYCNAAYGSSSYPMDYWGQGTTVTV
VL: NIQMTQSPSAMSASVGDRVTITCKASQDIHRYLSWFQQKPGKVPKHLIYRANRLVSGVPSRFSGSGSGTEFTLTISSLQPEDFATYYCLQYDEFPYTFGGGTKVEIK
B3 was tested, and the “EC50 (read off the curve)” value [13] was about 1 nM, the “IC50 (read off the curve)” value [14] was about 0.6 nM and the IC50 [15] was under 1 nM. The IC50 [16] was under 1 nM, the “IC50 (read off the curve)” value [3] was about 3 nM and the “IC50 (read off the curve)” value [17] was about 0.3 nM. The “IC50 (read off the curve)” value [18] was about 1 nM, the “EC50 (read off the curve)” value [19] was about 0.6 nM and the IC50 [20] was 1 to 20 nM. For the same binder, the “EC50 (read off the curve)” value [21] was about 0.6 nM, the “EC50 (read off the curve)” value [22] was about 0.07 nM and the “EC50 (read off the curve)” value [23] was about 1 nM. The “IC50 (read off the curve)” value [24] was about 0.9 nM, the IC50 [25] was over 2.7 nM and the “IC50 (read off the curve)” value [8] was about 3 nM. The IC50 [26] was over 2.7 nM, the IC50 [27] was under 1 nM and the “EC50 (read off the curve)” value [28] was about 1 nM. The “IC50 (read off the curve)” value [29] was about 0.6 nM and the “IC50 (read off the curve)” value [30] was about 1 nM.
